# Source: PMC3565990
# Biological target: SHP-1 (UniProt P29351)
# Test: anti-FLAG IP, anti-SHP-1 Western blot
# Settings: reference: wild-type CD72fl, NP-BSA stimulated; sites Y7
substance,measurement,value
"human CD72fl (FLAG-tagged) (from UniProt P21854) CD72flYF (Y7F), NP-BSA stimulated",binding against the reference,lost
